Assay results reported in patent publication US20200270586A1.
Read-outs that look alike come from different tables or passages of the source.

Legend:
Conditions in all cases: modification not given
[1] = target: LgTrip 3546 (with His tag; SEQ ID NO: 51); experiment: luminescence complementation
[2] = target: LgTrip 3546 (with His tag; SEQ ID NO: 51); experiment: luminescence complementation; SmTrip9 Kd
[3] = target: LgTrip 3546 (with His tag; SEQ ID NO: 51); experiment: luminescence complementation; SmTrip9 Kd; remark: listed apart in the source
[4] = target: LgTrip 3546 (with His tag; SEQ ID NO: 51)
[5] = target: LgTrip 3546 (with His tag; SEQ ID NO: 51); experiment: luminescence complementation; SmTrip9 Kd; remark: listed apart in the source
[6] = target: LgTrip 3546 (with His tag; SEQ ID NO: 51); experiment: luminescence complementation; remark: listed apart in the source
[7] = target: LgTrip 3546 (with His tag; SEQ ID NO: 51); experiment: luminescence complementation; SmTrip9 Kd; remark: listed apart in the source
[8] = target: LgTrip 3546 (with His tag; SEQ ID NO: 51); remark: listed apart in the source
[9] = target: LgTrip 3546 (with His tag; SEQ ID NO: 51); experiment: luminescence complementation; SmTrip9 Kd; remark: listed apart in the source
[10] = target: LgTrip 3546 (with His tag; SEQ ID NO: 51); experiment: luminescence complementation; remark: listed apart in the source
[11] = target: LgTrip 3546 (with His tag; SEQ ID NO: 51); experiment: luminescence complementation; remark: listed apart in the source
[12] = target: LgTrip 3546 (with His tag; SEQ ID NO: 51); remark: listed apart in the source
[13] = target: LgTrip 3546 (with His tag; SEQ ID NO: 51); experiment: luminescence complementation; SmTrip9 Kd; remark: listed apart in the source
[14] = target: LgTrip 3546 (with His tag; SEQ ID NO: 51); experiment: luminescence complementation; remark: listed apart in the source

LgTrip 3546 (with His tag; SEQ ID NO: 51), sequence (chain, as listed by the source): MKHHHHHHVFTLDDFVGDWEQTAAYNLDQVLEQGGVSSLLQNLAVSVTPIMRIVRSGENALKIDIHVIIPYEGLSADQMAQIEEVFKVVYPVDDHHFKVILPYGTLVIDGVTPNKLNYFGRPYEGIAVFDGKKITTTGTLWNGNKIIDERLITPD

Binder: EKMLFRVTIGKWK [708]
- Kd [1]: 280 nM

Binder: DKLLFTVTIGKYK [794]
- Kd [2]: 230 nM

Binder: DLMLFRVTINSWK [657]
- Kd [1]: 70 nM

Binder: DKLLFTVTIEKYK [759]
- Kd [2]: 560 nM
- Kd [3]: 330 nM

Binder: DRMLFRVTIQRWR [762]
- Kd [2]: 120 nM

Binder: GKMLFTVTINKWK [782]
- Kd [2]: 360 nM

Binder: DKMLFRVTIGNWK [740]
- Kd [1]: 3650 nM

Binder: SSWKRGSMLFRVWINS [427]
- Kd [4]: 230 nM

Binder: DKLLFTVTIGKWK [793]
- Kd [2]: 540 nM

Binder: GKMLFRVTIEKWK [703]
- Kd [1]: 110 nM

Binder: DKMLFKVTIEKWK [752]
- Kd [1]: 320 nM

Binder: DKMLFTVTINKWK [786]
- Kd [2]: 500 nM

Binder: DKMLFTVTIEKWK [753]
- Kd [2]: 150 nM
- Kd [1]: 120 nM

Binder: DKLLFTVTINKYK [800]
- Kd [2]: 9750 nM

Binder: DKMLFRVTIQNWK [741]
- Kd [1]: 12600 nM

Binder: KKLLFRVTIQKWK [761]
- Kd [2]: 20 nM

Binder: GKMLFRVTIGNWK [669]
- Kd [1]: 380 nM

Binder: RLMLFRVTINSWK [651]
- Kd [1]: 40 nM

Binder: KKMLFRVTIQKWK [760]
- Kd [2]: 20 nM

Binder: GKMKFRVTIQSWK [716]
- Kd [1]: 290 nM

Binder: KLMLFRVTINSWK [653]
- Kd [1]: 160 nM

Binder: DKMLFKVTINKWK [787]
- Kd [2]: 730 nM

Binder: DKLLFTVTIQKYK [757]
- Kd [2]: 190 nM
- Kd [5]: 360 nM

Binder: DKLLFTVTINKWK [799]
- Kd [2]: 210 nM

Binder: GKMNFRVTINSWK [618]
- Kd [1]: 2690 nM

Binder: DKMLFRVTINKWK [784]
- Kd [2]: 410 nM

Binder: DRMLFRVTIERWR [770]
- Kd [2]: 350 nM

Binder: EKMLFKVTIQKWK [714]
- Kd [1]: 220 nM

Binder: GKMLFKVTINKWK [781]
- Kd [2]: 380 nM

Binder: GKMLFRVTIKKWK [673]
- Kd [1]: 40 nM

Binder: EKMLFRVTIEKWK [707]
- Kd [1]: 1120 nM

Binder: DKLLFKVTIGKWK [750]
- Kd [1]: 350 nM

Binder: GRMLFRVTINRWR [768]
- Kd [2]: 100 nM

Binder: GKMLFRVTIESWK [622]
- Kd [1]: 7240 nM
- Kd [6]: 2880 nM

Binder: DKMLFRVTIESWK [722]
- Kd [1]: 17800 nM

Binder: GKMLFRVWINSWK [615]
- Kd [1]: 350 nM

Binder: GKMKFRVTIKSWK [718]
- Kd [1]: 380 nM

Binder: DKLLFTVTIEKWK [758]
- Kd [2]: 190 nM
- Kd [7]: 520 nM

Binder: DKMLFTVTIGKWK [749]
- Kd [2]: 1060 nM
- Kd [1]: 1700 nM

Binder: SSWKRMLFRVTINSVS [302]
- Kd [8]: 520 nM

Binder: ERMLFRVTIGRWR [766]
- Kd [2]: 70 nM

Binder: GKMLFRVTIKSWK [621]
- Kd [1]: 40 nM

Binder: DKMLFKVTIQKYK [783]
- Kd [2]: 240 nM

Binder: DKLLFTVTIQKWK [756]
- Kd [9]: 480 nM
- Kd [2]: 950 nM

Binder: GKMLFRVTIGKWK [668]
- Kd [10]: 60 nM
- Kd [1]: 130 nM

Binder: GKMLFRVTIQKWK [671]
- Kd [11]: 20 nM
- Kd [1]: 60 nM

Binder: DKMLFKVTIEKYK [785]
- Kd [2]: 380 nM

Binder: DKMLFRVTIQKWK [738]
- Kd [2]: 110 nM
- Kd [1]: 230 nM

Binder: SSKRGSMLFRVTIWSV [428]
- Kd [12]: 40 nM

Binder: DKMLFTVTIQKWK [745]
- Kd [2]: 200 nM
- Kd [13]: 300 nM
- Kd [1]: 160 nM

Binder: GKMLFRVTINSYK [620]
- Kd [14]: 120 nM
- Kd [1]: 190 nM

Binder: DKMLFRVTIEKWK [742]
- Kd [2]: 1000 nM
- Kd [1]: 750 nM
